How the values were obtained:
[1] = system: human embryonic stem cells (hESC); test: inhibition of mAb84 binding to hESC by soluble trisaccharide; format: cell-based; conditions: trisaccharide 0.4 mM, 0.8 mM, 2 mM, 4 mM; mAb84 (25 pM, 5 μg) in 200 μl, 2×10^5 hESC
Procedure: (§1) The importance of the trisaccharide Fucα1-2Galβ1-3GlcNA in mediating the cytotoxic interaction of mAb84 on human embryonic stem cells (hESC) was investigated by assessing the ability of synthetic soluble trisaccharide Fucα1-2Galβ1-3GlcNA to (i) inhibit the binding of mAb84 to hESC and (ii) reduce the cytotoxic effect of mAb84 on hESC.
(§2) mAb84 (25 pM, 5 μg) in 200 μl volume was added to 2×10^5 hESC and preincubated for 15 minutes prior to addition of synthetic soluble trisaccharide Fucα1-2Galβ1-3GlcN (in concentrations of 0 (control), 0.4 mM, 0.8 mM, 2 mM, 4 mM).

[2] = system: human embryonic stem cells (hESC); test: relative viability of hESC in response to mAb84 with added trisaccharide; format: cell-based
Procedure: as §1, §2

[3] = molecular target: T1, PODXL on the surface of hESCs (Homo sapiens, UniProt O00592); test: kinetics of mAb84 binding to PODXL on the surface of hESCs
T1 construct: mAb 84 only detected hESC—PODXL but not expressed PODXL; endogenous in cells; host or cells: hESC (HES-3)
T1 sequence (O00592 23-558): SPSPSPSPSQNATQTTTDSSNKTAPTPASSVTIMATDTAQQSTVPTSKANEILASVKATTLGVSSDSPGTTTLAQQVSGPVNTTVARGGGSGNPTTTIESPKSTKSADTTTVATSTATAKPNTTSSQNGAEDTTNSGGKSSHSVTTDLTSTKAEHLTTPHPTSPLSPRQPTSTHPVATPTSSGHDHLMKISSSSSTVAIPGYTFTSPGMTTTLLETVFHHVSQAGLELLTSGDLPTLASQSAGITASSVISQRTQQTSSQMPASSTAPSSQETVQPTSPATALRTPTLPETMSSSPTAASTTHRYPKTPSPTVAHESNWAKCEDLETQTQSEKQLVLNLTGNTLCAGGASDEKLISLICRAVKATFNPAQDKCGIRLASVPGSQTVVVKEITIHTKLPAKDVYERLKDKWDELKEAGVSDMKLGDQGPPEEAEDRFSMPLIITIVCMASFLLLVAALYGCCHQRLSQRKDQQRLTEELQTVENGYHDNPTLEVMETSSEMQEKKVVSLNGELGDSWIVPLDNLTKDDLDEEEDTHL

[4] = Printed Glycan Array V4.1 (Consortium for Functional Glycomics) binding
Procedure: Buffers: • TSM=20 mM Tris-HCl, pH 7.4 150 mM NaCl, 2 mM CaCl2, 2 mM MgCl2 • TSM Wash Buffer (TSMW)=TSM Buffer+0.05% Tween-20 • TSM Binding Buffer (TSMBB)=TSM buffer+0.05% Tween 20+1% BSA
Protocol: • 1. Make working stocks of washing buffers (TSM, TSM Wash Buffer, and H2O) or collect reagents and bring to room temperature if they have been in the refrigerator. • 1.1. Buffer (A) TSM-20 mM Tris-HCl, pH 7.4 150 mM NaCl, 2 mM CaCl2, 2 mM MgCl2 • 1.2. Buffer (B) TSM Wash Buffer (TSMW)—TSM Buffer+0.05% Tween-20 • 1.3. Buffer (C) TSM Binding Buffer (TSMBB)—TSM buffer+0.05% Tween 20+1% BSA • 1.4. dH20 • 2. Prepare 100 μl of sample by diluting antibody in TSMBB or appropriate Binding Buffer based on properties of Antibody to a final concentration of 5-50 μg/ml or an appropriate concentration required for the analysis. • mAb84 antibodies were added at a concentration of 50 μg/ml. • mAb85 antibodies were added at a concentration of 50 μg/ml. • 3. Remove slide(s) from dessicator and label slide with sample name near barcode, outside of the black marks. • 4. […]
mAb84 antibodies were contacted with the glycans. […] Bound antibodies were detected using AlexaFluor-488-labeled secondary antibodies as described above. The secondary antibodies were then detected using a fluorescence scanner. Binding is presented in relative fluorescence units (RFU). […]

[5] = molecular target: T2, unglycosylated PODXL (in vitro transcription and translation (TnT)) (Homo sapiens, UniProt O00592); test: Western blot of in vitro TnT-expressed PODXL probed with antibodies; format: binding; conditions: SDS-PAGE
T2 construct: made in house; host or cells: in vitro transcription and translation (cell-free)
T2 sequence (O00592 23-558): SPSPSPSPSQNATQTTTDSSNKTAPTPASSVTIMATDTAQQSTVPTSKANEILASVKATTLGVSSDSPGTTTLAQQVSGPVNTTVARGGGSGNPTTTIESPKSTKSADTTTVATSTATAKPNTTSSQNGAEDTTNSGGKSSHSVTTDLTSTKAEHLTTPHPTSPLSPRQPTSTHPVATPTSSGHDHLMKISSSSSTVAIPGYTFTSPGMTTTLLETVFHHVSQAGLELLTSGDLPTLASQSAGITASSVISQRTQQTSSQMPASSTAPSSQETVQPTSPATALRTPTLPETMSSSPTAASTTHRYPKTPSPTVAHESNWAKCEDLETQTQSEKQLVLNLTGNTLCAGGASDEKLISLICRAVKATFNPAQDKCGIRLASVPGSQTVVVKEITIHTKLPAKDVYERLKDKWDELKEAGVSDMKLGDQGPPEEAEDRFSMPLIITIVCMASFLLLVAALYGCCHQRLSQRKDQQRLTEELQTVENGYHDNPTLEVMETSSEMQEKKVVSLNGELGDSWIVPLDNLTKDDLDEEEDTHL
Source text: (§3) The gene encoding PODXL was isolated and sequenced from hESC. The gene was cloned into vectors and expressed either unglycosylated (in vitro TnT) or in mammalian cells (HEK or COS cells which are capable of glycosylating the expressed protein).
(§4) The proteins obtained were then resolved on SDS-PAGE, Western blotted and probed with antibodies. The antibodies used were commercially available anti-PODXL antibodies (monoclonal and polyclonal) and mAb 84. […] For COS and HEK expressed PODXL, only monoclonal anti-PODXL detected both the expressed PODXL and PODXL from hESC.

[6] = molecular target: T3, PODXL over-expressed in HEK and COS cells (Homo sapiens, UniProt O00592); test: Western blot of COS and HEK expressed PODXL probed with antibodies; format: binding; conditions: SDS-PAGE
T3 construct: expressed in transfected cells; host or cells: HEK or COS cells
T3 sequence (O00592 23-558): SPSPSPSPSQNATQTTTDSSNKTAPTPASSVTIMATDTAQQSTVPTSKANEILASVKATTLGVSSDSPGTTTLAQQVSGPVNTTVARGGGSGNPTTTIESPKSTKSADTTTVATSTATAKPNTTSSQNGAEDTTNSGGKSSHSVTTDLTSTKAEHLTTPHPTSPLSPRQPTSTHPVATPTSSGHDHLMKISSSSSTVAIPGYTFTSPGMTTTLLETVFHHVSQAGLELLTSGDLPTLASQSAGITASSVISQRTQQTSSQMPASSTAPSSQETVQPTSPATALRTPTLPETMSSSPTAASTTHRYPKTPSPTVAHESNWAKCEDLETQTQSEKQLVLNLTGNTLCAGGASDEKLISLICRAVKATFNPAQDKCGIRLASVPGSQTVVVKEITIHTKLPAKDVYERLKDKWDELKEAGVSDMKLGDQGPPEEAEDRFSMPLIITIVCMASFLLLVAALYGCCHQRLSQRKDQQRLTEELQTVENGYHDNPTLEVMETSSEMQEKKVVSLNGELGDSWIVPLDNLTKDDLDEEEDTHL
Source text: as §3, §4

PODXL from hESC (HES-3) = molecular target: T4, PODXL from hESC (HES-3) (Homo sapiens, UniProt O00592); test: Western blot of PODXL from hESC probed with antibodies; format: binding; conditions: SDS-PAGE
T4 construct: mAb 84 only detected hESC—PODXL but not expressed PODXL; endogenous in cells; host or cells: hESC (HES-3)
T4 sequence (O00592 23-558): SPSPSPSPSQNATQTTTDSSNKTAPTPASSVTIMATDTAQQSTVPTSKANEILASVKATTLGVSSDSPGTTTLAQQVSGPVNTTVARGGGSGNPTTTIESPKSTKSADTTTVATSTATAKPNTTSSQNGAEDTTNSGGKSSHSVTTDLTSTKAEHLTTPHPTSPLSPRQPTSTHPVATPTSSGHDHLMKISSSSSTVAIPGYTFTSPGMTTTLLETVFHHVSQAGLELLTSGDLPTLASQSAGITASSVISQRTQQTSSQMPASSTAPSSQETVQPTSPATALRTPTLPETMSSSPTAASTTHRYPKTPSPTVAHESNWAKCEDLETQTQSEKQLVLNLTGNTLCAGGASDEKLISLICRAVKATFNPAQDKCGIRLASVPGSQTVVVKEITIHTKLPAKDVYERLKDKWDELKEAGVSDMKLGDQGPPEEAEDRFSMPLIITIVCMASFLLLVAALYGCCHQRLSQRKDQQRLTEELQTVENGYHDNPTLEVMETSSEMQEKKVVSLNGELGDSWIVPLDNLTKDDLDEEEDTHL
Source text: as §3, §4
In either COS or HEK cells, PODXL is glycosylated (and so has a higher MW). However the band is lower than PODXL expressed in hESC (HES-3). Also, mAb 84 only detected hESC—PODXL but not expressed PODXL. This led to the conclusion that there is a stem cell-specific modification (glycosylation) to PODXL. Without being bound by theory, it appears that when PODXL is glycosylated by stem cells the resulting glycan structure is different that of PODXL glycosylated by other cells.

day 8 embyroid bodies = test: mAb 84 binding reactivity to embryoid bodies; format: cell-based, human
FGF2-starved hESC = test: mAb 84-mediated killing on FGF2-starved hESC; format: cell-based, human
day 22 EB = test: mAb 84-mediated killing on day 22 EB; format: cell-based, human
[7] = system: undifferentiated human embryonic stem cells (hESC); conditions: cited from earlier work
IPSCs = conditions: WO/2010/033084; cited from earlier work
hESC = hESC treated with mAb 84 prior to transplantation into SCID mice; cited from earlier work

Molecule | inhibition of mAb84 binding to hESC [1] | cytotoxic effect of mAb84 on hESC (relative viability) ([2]; increasing concentrations of trisaccharide 0.4 mM, 0.8 mM, 2 mM, 4 mM) | cytotoxic effect of mAb84 on hESC (relative viability) ([2]; trisaccharide 2 mM) | cytotoxic effect of mAb84 on hESC (relative viability) ([2]; trisaccharide 4 mM) | koff [3] | kon [3] | relative binding (binding of mAb84 divided by binding of mAb85 to the same glycans) ([4]; 9 glycans containing Fucα1-2Galβ1-3GlcNAc, RFU values) | binding to glycans in the glycan array ([4]; 465 glycans, V4.1 array, Alexa488 labeled secondary antibody) | detection of unglycosylated PODXL [5] | detection of unglycosylated PODXL ([5]; listed as mAb 84) | detection of expressed (glycosylated) PODXL [6] | detection of PODXL from hESC (PODXL from hESC (HES-3)) | binding reactivity compared to undifferentiated hESC (day 8 embyroid bodies) | mAb 84-mediated killing (FGF2-starved hESC) | mAb 84-mediated killing (day 22 EB) | cytotoxicity against undifferentiated hESCs ([7]; WO 2007/102787) | incubation time to cell death of undifferentiated hESC ([7]; undifferentiated hESC) | cytotoxicity against IPSCs (IPSCs) | tumour formation (hESC)
CC(=O)N[C@H]1C(O)O[C@H](CO)[C@@H](O)[C@@H]1O[C@@H]1O[C@H](CO)[C@H](O)[C@H](O)[C@H]1O[C@@H]1O[C@@H](C)[C@@H](O)[C@@H](O)[C@@H]1O (stereo partly shown) [Fucα1-2Galβ1-3GlcNAc] | dose dependently inhibit | reduction | abolished | abolished |  |  |  |  |  |  |  |  |  |  |  |  |  |  | 
mAb84: IgM monoclonal antibody which specifically binds and kills undifferentiated human embryonic stem cells; antigen is PODXL (antibody, V domains shown, Synthetic sequenceVH chain of mAb 84; Synthetic sequence VL chain of mAb 84, antigen is PODXL) VH: QVQLQQSGGGLVQPGGSMKLSCVASGFTFSNYWMNWVRQSPEKGLEWVAEIRLKSNNYATHYAESVKGRFTISRDDSKSSVYLQMNNLRAEDTGIYYCTGERAWGQGTTVTVSS VL: DIELTQSPAIMSASPGEKVTMTCSASSSVNYMYWYQQKPGSSPRLLIYDTSNLASGVPVRFSGSGSGTSYSLTISRMEAEDAATYYCQQWSSYPYTFGGGTKLEIKR |  |  |  |  | 0.0029 s⁻¹ | 7.1 e4 M^−1 s^−1 | at least 37 times | selectively bind | did not detect | does not bind | does not bind | detected | reduced | decrease | loss | cytotoxic | ≤ 30 min | cytotoxic | absence of tumour formation

Reference: US8802376B2, “Methods for identifying candidate cytotoxic antibody molecules” (Agency for Science, Technology and Research, priority 2010, dated 2014)
